Experimental data published in paper PMC9242963, “FFF-based high-throughput sequence shortlisting to support the development of aptamer-based analytical strategies”.

Biological target: lysozyme (UniProt P00698 19-147)
Assay: AF4-UV (asymmetrical flow field-flow fractionation); concentration-dependent; among highest affinity with A80; PBS-Mg2+ buffer (also mobile phase; composition, pH and temperature not given in the material); 10 uL of 5 uM aptamer + 10 uL of 5, 10, 25 or 50 uM protein (1:1 to 1:10); detection at 260 nm; n = 3
Conditions: protein: commercial; label: none

Sequence of lysozyme (P00698 19-147): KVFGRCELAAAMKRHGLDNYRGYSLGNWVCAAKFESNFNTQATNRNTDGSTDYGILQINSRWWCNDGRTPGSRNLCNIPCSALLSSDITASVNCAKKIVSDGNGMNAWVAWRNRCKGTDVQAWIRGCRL

GCAGCTAAGCAGGCGGCTCACAAAACCATTCGCATGCGGC (ssDNA) [A40]: binds.
